In the experiment the target is rMjShoc2 (recombinant MjShoc2) (Marsupenaeus japonicus). Nature of the experiment: ITC; MICROCAL PEAQ-ITC; rFlaA (2 mM) in the syringe, rMjShoc2 (0.2 mM) in the cell; 2 μl injections, 25°C; one set of sites model. (In general: In ITC the heat of successive injections is recorded.)

Take “rFlaA (recombinant FlaA of the ITC assay) (from UniProt Q60246 1-379) (natural protein)”: the Kd (commonly the equilibrium constant for the complex coming apart) was 10 µM.

(Values after publication PMC8812994.)
